Biological target: T1, rituximab (RITUXAN), coated on CD20+ Daudi cells
T1 construct: also called MABTHERA; ZYTUX
Assay: flow cytometry titrations compared: rituximab-coated Daudi cells against Jurkat cells (CD3)
Description: Figure 12: FIG. 12 schematically depicts an assay using Daudi cells to test the ability of an Adapter-like ADCC Enhancer of the present invention to bind CD20+ target cells coated with RITUXAN (rituximab). Figure 13: FIG. 13 illustrates FACS data showing, in an assay according to FIG. 12, the binding between Daudi cells and the ADCC Enhancer of the invention before purification ("Sample Load") and after purification ("Purified Protein"). Figure 14: FIG. 14 illustrates FACS data showing titration of binding between Daudi cells and the ADCC Enhancer of the invention at various concentrations. The volume of the Enhancer in microliters are indicated in the upper right corner of the top six diagrams as: 50, 25, 12.5, 6.25, 3.13 and 1.56 microliters. The bottom diagram summarizes the data. CD20+ Daudi cells were coated with RITUXAN (rituximab) (anti-CD20 antibody) and excess RITUXAN (rituximab) was removed by washing the cells with PBS. RITUXAN (rituximab)-coated cells were incubated with various amounts of the Enhancer, and excess Enhancer was removed by washing the cells in PBS. Bound Enhancer proteins were detected using fluorescent anti-human CD64 antibody.
With tagged protein, binding affinity can also be detected using a fluorescently tagged anti-tag antibody. This approach can also be used to detect binding of the CD64 domain by rituximab-coated CD20⁺ Daudi cells (see FIG. 12). […]

B1: CD64-dhOKT3 fusion protein (Adapter-like ADCC Enhancer) (other)
chain: QVDTTKAVITLQPPWVSVFQEETVTLHCEVLHLPGSSSTQWFLNGTATQTSTPSYRITSASVNDSGEYRCQRGLSGRSDPIQLEIHRGWLLLQVSSRVFTEGEPLALRCHAWKDKLVYNVLYYRNGKAFKFFHWNSNLTILKTNISHNGTYHCSGMGKHRYTSAGISVTVKELFPAPVLNASVTSPLLEGNLVTLSCETKLLLQRPGLQLYFSFYMGSKTLRGRNTSSEYQILTARREDSGLYWCEAATEDGNVLKRSPELELQVLSSGGGGSQVQLVQSGGGVVQPGRSLRLSCKSSGYTFTRYTMHWVRQAPGKGLEWIGYINPSRGYTNYNQKVKDRFTISRDNSKNTAFLQMDSLRPEDTGVYFCARYYDDHYCLDYWGQGTPVTVSSVEGGSGGSGGSGGSGGVDDIQMTQSPSSLSASVGDRVTITCRASSSVSYMNWYQQTPGKAPKRWIYDTSKVASGVPSRFSGSGSGTDYTFTISSLQPEDIATYYCQQWSSNPLTFGQGTKLQIT
notes: Expressed in Expi293 cells and used as culture supernatant or after IgG Sepharose purification; Untagged; also called Soluble Universal ADCC Enhancer Protein; SUAEP
- fold stronger Fc- or antibody-binding than CD3-binding: ~30 fold

From patent US12247062 (1GLOBE BIOMEDICAL, dated 2025)
